Measured values published in patent US20190010228A1 (Genentech, published 2019).
Where a chain is given by its changes, count along the chain named. In names and notes the source's numbering stands.

B1: YW629.51 (antibody, human IgG1, V domains shown)
VH: EVQLVESGGGLVQPGGSLRLSCAASGFTFSSYAMHWVRQAPGKGLEWVSRISSNGGSTYYADSVKGRFTISRDNSKNTLYLQMNSLRAEDTAVYYCARWIPQSYPFASYKSGFDYWGQGTLVTVSS
VL: DIQMTQSPSSLSASVGDRVTITCRASQGISSYLAWYQQKPGKAPKLLIYDASSLESGVPSRFSGSGSGTDFTLTISSLQPEDFATYYCQQYYSYPFTFGQGTKVEIKR
notes: also called P6C.51; bivalent LRP5 antibody (P6C.51)
B2: YW629.51.61 (antibody, human IgG1, V domains shown)
VH: B1 VH
VL: B1 VL with G28V, I29M, S30G, S31Y
notes: also called P6C.51.61; PC6.51.61
B3: YW629.51.13 (antibody, human IgG1, V domains shown)
VH: B1 VH with A107R
VL: B1 VL
notes: also called P6C.51.13
B4: YW629.51.63 (antibody, human IgG1, V domains shown)
VH: B1 VH
VL: B1 VL with G28S, S30Y, S31Y
notes: also called P6C.51.63
B5: YW629.51.77 (antibody, human IgG1, V domains shown)
VH: B1 VH
VL: B1 VL with G28V, S30Y, S31G, S53T, L54R
notes: also called P6C.51.77
B6: YW629.51.78 (antibody, human IgG1, V domains shown)
VH: B1 VH
VL: B1 VL with S30F, S31Y, S53T
notes: also called P6C.51.78
B7: YW629.51.80 (antibody, human IgG1, V domains shown)
VH: B1 VH
VL: B1 VL with G28A, S30Y
notes: also called P6C.51.80
B8: YW629.42 (antibody, human IgG1, V domains shown)
VH: EVQLVESGGGLVQPGGSLRLSCAASGFTFSSYAMSWVRQAPGKGLEWVGAISSSGSSTYYADSVKGRFTISRDNSKNTLYLQMNSLRAEDTAVYYCARYYRYAPYRSLGMDVWGQGTLVTVSS
VL: B1 VL with D50A, E55Q
notes: also called P6C.42
B9: YW629.42.57 (antibody, human IgG1, V domains shown)
VH: B8 VH with S53A, S54P
VL: B1 VL with D50A, E55Q
notes: also called P6C.42.57
B10: YW629.42.58 (antibody, human IgG1, V domains shown)
VH: B8 VH with S54P, S56W
VL: B1 VL with D50A, E55Q
notes: also called P6C.42.58
B11: YW629.42.65 (antibody, human IgG1, V domains shown)
VH: B8 VH with A50G, S54P
VL: B1 VL with D50A, E55Q, S93L
notes: also called P6C.42.65

biological target: LRP5 (transfected into reporter cells); experiment: cell-based or functional assay

Binder | TOPFlash luciferase reporter, recombinant Norrin (cells transfected with LRP5 and FZD-4) | TOPFlash luciferase reporter, Norrin as ligand (cells transfected with LRP5 and FZD-4) | TOPFlash luciferase reporter, Wnt7b as ligand (cells transfected with LRP5 and FZD-4)
B1 | > 2 fold | – | –
B2 | – | 3 fold | 2 fold

biological target: T1, human LRP5 domains E3-E4 (E644-Q1263 of SEQ ID NO: 42) (human, UniProt O75197 644-1263); experiment: SPR, BIAcore T100, IgG captured by anti-human Fc, LRP5E3/E4 as analyte, 25 C
T1 construct: Soluble fragment made in-house; It was biotinylated for phage sorting; also called LRP5-E3/E4; LRP5E3/E4
T1 sequence: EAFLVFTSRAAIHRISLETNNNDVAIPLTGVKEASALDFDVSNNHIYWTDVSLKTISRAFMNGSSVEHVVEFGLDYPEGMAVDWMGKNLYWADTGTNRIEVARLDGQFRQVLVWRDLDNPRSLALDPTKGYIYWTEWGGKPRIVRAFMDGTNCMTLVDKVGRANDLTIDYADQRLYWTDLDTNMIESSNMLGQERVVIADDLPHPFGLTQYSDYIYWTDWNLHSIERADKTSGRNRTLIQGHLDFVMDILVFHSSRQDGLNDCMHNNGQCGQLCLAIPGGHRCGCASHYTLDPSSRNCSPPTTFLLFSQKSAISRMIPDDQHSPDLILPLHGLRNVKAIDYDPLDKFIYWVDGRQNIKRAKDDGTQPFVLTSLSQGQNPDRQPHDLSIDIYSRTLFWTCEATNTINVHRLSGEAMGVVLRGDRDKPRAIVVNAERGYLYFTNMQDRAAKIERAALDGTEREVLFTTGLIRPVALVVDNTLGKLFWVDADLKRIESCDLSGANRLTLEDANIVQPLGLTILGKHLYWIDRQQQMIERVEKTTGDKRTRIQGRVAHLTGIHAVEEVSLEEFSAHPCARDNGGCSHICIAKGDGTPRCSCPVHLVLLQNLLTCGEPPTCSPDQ
Experimental: Binding affinities of anti-LRP5E3/E4 IgGs were measured by Surface Plasmon Resonance (SPR) using a BIAcore™-T100 instrument. Anti-LRP5E3/E4 human IgGs were captured by mouse anti-human Fc antibody (GE Healthcare, cat# BR-1008-39) coated on CM5 biosensor chips to achieve approximately 200 response units (RU). For kinetics measurements, two-fold serial dilutions ([…]) of human LRP5E3/E4 (GNE) were injected in HBS-P buffer (10 mM HEPES, pH 7.4, 0.15 M NaCl, 0.005% surfactant P20) at 25° C. with a flow rate of 30 μl/min. Association rates (kₒₙ) and dissociation rates (koff) were calculated using a simple one-to-one Langmuir binding model (BIAcore Evaluation Software version 2.0.2). The equilibrium dissociation constant (KD) was calculated as the ratio koff/kₒₙ.

Binder | Kd | koff | kon
B1 | 13 nM | 0.00309 s⁻¹ | 237000 M⁻¹ s⁻¹
B3 | 1.13 nM | 0.000369 s⁻¹ | 327000 M⁻¹ s⁻¹
B2 | 0.47 nM | 0.000115 s⁻¹ | 244000 M⁻¹ s⁻¹
B4 | 0.592 nM | 0.000199 s⁻¹ | 337000 M⁻¹ s⁻¹
B5 | 0.438 nM | 0.000165 s⁻¹ | 376000 M⁻¹ s⁻¹
B6 | 0.192 nM | 7.24e-05 s⁻¹ | 378000 M⁻¹ s⁻¹
B7 | 0.268 nM | 0.000104 s⁻¹ | 387000 M⁻¹ s⁻¹
B8 | 51.6 nM | 0.00116 s⁻¹ | 22600 M⁻¹ s⁻¹
B9 | 5.42 nM | 0.000163 s⁻¹ | 30100 M⁻¹ s⁻¹
B10 | 2.78 nM | 8.69e-05 s⁻¹ | 31300 M⁻¹ s⁻¹
B11 | 2.54 nM | 9.63e-05 s⁻¹ | 37900 M⁻¹ s⁻¹
